Measured values published in patent US20100260765A1 (AstraZeneca / MedImmune, published 2010).
Substitutions are numbered along the chain they refer to.

B1: anti-KDR monoclonal antibody 29A3 (antibody, V domains shown)
VH: QVQLQESGPGLVKPSETLSLTCTVSGGSISSYFWSWIRQPAGKGLEWIGRIYFSGRTNYNPSLKSRVTMSVETSKNQFSLKLNSVTAADTAVYYCARDGGWNYDVAFDYWGQGTLVTVSS
VL: QAVLTQPSSLSASPGASASLTCTLRSGINVGTYRIYWYQQKPGSPPQYLLRYKSDSDQLQGSGVPSRFSGSKDASANAGILLISGLQSEDEADYYCMVWHSNTWVFGGGTKLTVL
notes: Fully human mAb from XenoMouse (IgG2 or IgG4 strain); hybridoma supernatant
B2: 31E11 (antibody, V domains shown)
VH: QVQLVESGGGLVKPGGSLRLSCAASGFTFSDYYMSWIRQAPGKGLEWVSYISISGSTIYYADSVKGRFTISRDNAKNSLYLQMNSLRAEDTAVYYCARDDFWSGYYFNWFDPWGQGTLVTVSS
VL: DIQMTQSPSSLSASVGDRVTITCRANQTISTFLNWYQQNPGKAPKLLIYAASSLQSGVPSRFSGSGSGTDFTLTISSLQPEDFATYYCQQTYIIPLTFGGGTKVEIK
notes: Fully human mAb from XenoMouse hybridoma, tested as hybridoma supernatant
B3: 33C3 (antibody, V domains shown)
VH: B2 VH with G16E, I53H, S54G, A88V, Y95F, T117A
VL: DIQMTQYPLSLSASVGDRVTITCRASQSISSFLNWYHQKPGKAPKLLIYGTSSLQSGVPSRFSGSGSGTDFTLTISSLQPEDFATYYCQQTYSIPLTFGGGTNVEIK
notes: as for B2
B4: anti-KDR monoclonal antibody 30D7 (antibody, V domains shown)
VH: QVPLVESGGGVVQPGRSLRLSCAASGFTFSSYGMHWVRQAPGKGLEWVAVIWYDGSNKYYADSVKGRFTISRDNSKNTLYLQMNSLRAEDTAVYYCARGVTMVRGVIIARYYYGLDVWGQGTTVTVSS
VL: DIVMTQTPLSSPVTLGQPASISCRSSQSLVHSDGNTYLSWLQQRPGQPPRLLIYKISNRFFGVPDRFSGSGAGTDFTLKIGRVEAEDVGLYYCMQSTQFPLTFGGGTKVEIK
notes: as for B1
B5: 30F6 (antibody, V domains shown)
VH: QVQLVESGGGVVQPGRSLRLSCAASGFTFSTYGMHWVRQAPGKGLEWVAVIWYDGSNKYYADSVKGRFTISRDNSKNTLYLQMNSLRAEDTAVYYCACSYWNDDYYYGMDVWGQGTTVTVSS
VL: DIQMTQSPSSLSASVGDRVIITCRASQNISSYLIWYQQKPGKAPNLLIHTTSSLQRGVPSRFSGSGSGTDFTLTISSLQPEDFATYYCQQSYSAPLTFGGGTKVEIK
notes: as for B2
B6: anti-KDR monoclonal antibody 33D5 (antibody, V domains shown)
VH: QVQLVQSGAEVKKPGASVKVSCKASGYTFGSYDINWVRQATGQGLEWMGWMNPNSGNTGYAQKFQGRVTLTRNTSIRTVYMELSSLRSEDTAVYYCARGGYSNLGWFDPWGQGSLVTVSS
VL: DIQMTQSPSSVSVSVGDRVTITCRASQGISSWLAWYQQKPGKAPKLLIYAASSLQSGVPSRFSGSGSGTDFTLTISSLQPEDFATYYCQQANSFPFTFGPGTKVDIK
notes: as for B1
B7: 33E1 (antibody, V domains shown)
VH: QVQLQESGPGLVKPSQTLSLTCTVSGGSISSGDHYWSWIRQHPGKGLEWIGHIYYSGSTDYNPSLKSRVTISVDTSKNHFSLKLNSVTAADTAVYYCARTNSSSWSDWYFDLWGRGTLVTVSS
VL: DIVMTQSPDSLAVSLGERATINCKSSQSILYSSNNKNYLAWYQRKPGQPPILLIHWASTRESGVPDRFSGSGSRTDFTLTISSLQAEDVAVYYCQQYFITPWTFGQGTKVEIK
notes: as for B2
B8: anti-KDR monoclonal antibody 32B2 (antibody, V domains shown)
VH: EVQLLESGGGLVQPGGSLRLSCAASGFTFSNYAMSWVRQAPGKGLDWVSAISGRGGSTYYADSVKGRFTISRDNSKNTLFLLMNSLRAEDTAVYYCAKASGDDWGQGTLVTVSS
VL: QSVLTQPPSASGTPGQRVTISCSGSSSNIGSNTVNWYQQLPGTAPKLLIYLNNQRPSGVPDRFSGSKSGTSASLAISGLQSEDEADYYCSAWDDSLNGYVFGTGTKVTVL
notes: as for B1

Tests used:
[1] = biological target: T1, human KDR (VEGFR2) on cells (human, UniProt P35968 20-1356); assay: cell-based or functional assay
T1 sequence (P35968 20-1356): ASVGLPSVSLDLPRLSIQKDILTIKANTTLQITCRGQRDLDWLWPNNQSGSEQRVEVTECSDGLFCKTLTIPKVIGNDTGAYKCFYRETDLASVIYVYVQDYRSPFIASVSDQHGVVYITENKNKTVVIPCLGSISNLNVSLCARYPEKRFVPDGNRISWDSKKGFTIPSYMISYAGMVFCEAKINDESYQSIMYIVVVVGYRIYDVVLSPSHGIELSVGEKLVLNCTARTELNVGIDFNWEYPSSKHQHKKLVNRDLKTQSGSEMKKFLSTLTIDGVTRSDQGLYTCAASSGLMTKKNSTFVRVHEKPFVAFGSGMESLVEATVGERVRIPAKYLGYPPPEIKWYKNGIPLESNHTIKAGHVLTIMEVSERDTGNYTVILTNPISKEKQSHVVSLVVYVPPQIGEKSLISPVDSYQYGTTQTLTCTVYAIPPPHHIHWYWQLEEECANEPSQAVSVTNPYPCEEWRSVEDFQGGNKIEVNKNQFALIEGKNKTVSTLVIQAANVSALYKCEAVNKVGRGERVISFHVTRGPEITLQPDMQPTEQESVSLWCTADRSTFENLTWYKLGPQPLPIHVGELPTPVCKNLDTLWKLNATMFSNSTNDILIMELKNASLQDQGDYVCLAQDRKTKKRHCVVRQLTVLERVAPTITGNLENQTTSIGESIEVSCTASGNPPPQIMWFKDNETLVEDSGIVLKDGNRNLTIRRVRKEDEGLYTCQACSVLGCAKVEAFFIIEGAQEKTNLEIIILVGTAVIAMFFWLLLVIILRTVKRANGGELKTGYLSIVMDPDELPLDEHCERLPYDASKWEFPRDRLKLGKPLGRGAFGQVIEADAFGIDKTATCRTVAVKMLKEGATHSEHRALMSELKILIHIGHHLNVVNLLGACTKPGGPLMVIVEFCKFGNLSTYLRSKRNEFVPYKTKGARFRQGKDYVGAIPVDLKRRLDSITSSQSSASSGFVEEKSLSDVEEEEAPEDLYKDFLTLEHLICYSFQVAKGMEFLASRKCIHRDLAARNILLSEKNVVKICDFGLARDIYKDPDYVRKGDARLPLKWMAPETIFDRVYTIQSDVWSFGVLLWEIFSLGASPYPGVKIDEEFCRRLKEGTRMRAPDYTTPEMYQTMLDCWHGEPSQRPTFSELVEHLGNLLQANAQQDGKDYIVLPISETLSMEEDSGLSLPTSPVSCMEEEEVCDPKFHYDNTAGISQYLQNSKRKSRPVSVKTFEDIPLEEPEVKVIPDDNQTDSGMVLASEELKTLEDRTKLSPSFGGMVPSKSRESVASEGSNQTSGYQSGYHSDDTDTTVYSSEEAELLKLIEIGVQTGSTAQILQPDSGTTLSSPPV

[2] = biological target: T2, soluble KDR (VEGF Receptor 2 D1-7, Cat. #676490, Calbiochem) (human, UniProt P35968 20-764); assay: ELISA, plate-coated soluble KDR 250 ng/mL, hybridoma supernatant 1:5
T2 construct: extracellular domain; Bought reagent; also called soluble human KDR; immobilized soluble KDR
T2 sequence (P35968 20-764): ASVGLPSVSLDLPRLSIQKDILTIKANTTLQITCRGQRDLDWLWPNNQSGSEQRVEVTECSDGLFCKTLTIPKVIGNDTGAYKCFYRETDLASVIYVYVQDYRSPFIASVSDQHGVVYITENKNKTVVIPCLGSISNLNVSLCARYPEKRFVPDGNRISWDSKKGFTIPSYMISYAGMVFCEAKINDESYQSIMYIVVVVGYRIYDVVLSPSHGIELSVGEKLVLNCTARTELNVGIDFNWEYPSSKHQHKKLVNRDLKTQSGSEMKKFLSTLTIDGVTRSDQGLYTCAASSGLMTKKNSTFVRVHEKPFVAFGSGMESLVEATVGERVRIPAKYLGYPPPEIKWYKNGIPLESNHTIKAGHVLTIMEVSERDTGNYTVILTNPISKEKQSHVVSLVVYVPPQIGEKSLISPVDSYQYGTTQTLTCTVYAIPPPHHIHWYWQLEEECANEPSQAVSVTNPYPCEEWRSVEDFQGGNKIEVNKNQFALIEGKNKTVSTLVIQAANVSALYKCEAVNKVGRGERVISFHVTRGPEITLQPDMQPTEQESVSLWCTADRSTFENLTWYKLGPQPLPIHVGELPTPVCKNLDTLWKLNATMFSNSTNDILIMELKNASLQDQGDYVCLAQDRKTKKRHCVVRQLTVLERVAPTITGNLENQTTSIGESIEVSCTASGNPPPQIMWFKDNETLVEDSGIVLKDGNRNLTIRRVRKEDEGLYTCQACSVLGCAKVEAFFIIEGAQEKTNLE
Experimental: To screen by binding to immobilized soluble KDR, plates were coated with KDR (Calbiochem) at 250 ng/mL overnight at 4° C. After blocking and washing the coated plates, the candidate hybridoma supernatants (at 1:5 dilution) were transferred to the plates and incubated for one hour at room temperature. The plates were then washed and incubated with secondary antibody (at 1:4000 dilution) for one hour at room temperature.

[3] = biological target: T1, human KDR (VEGFR2) on cells; assay: cell-based or functional assay; remark: listed apart in the source
[4] = biological target: T1, human KDR (VEGFR2) on cells; assay: cell-based or functional assay; remark: listed apart in the source
[5] = biological target: T1, human KDR (VEGFR2) on cells; assay: FACS on HUVEC, hybridoma supernatant 1:50
Experimental: HUVECs were seeded at 15,000 cells/well and incubated with 100 μL of sample supernatant (at 1:50 dilution) for one hour at 4° C. The positive control was goat anti-KDR antibody (R&D Systems, Inc.), and negative controls included irrelevant hybridoma supernatants at the same dilution. The cells were then washed and incubated with Cy5-conjugated goat anti-human antibody at 5 μg/mL and 7-Amino-Actinomycin D (7AAD) at 5 μg/mL for 15 minutes at 4° C. Bound KDR was detected using FACS analysis.

[6] = biological target: T3, soluble KDR extracellular domain (ECD) (Calbiochem) (human, UniProt P35968 20-764); assay: Limited Antigen ELISA, KDR coat 6.25 ng/mL, supernatant 1:25
T3 construct: extracellular domain; Bought protein; also called KDR-ECD; VEGF Receptor 2 D1-7, Cat. #676490
T3 sequence (P35968 20-764): as above
Experimental: (§1) Samples containing one concentration of antibody (Ab) (1:25 dilution) were incubated overnight to allow Ab binding to approach equilibrium. The low antigen concentration limited the effect of antibody concentration, allowing ranking of the antibodies based on their relative affinity.

[7] = biological target: T3, soluble KDR extracellular domain (ECD) …; assay: High Antigen ELISA, KDR coat 500 ng/mL, supernatant 1:225
[8] = biological target: T3, soluble KDR extracellular domain (ECD) …; assay: Limited Antigen ELISA, KDR coat 25 ng/mL, supernatant 1:25
Experimental: as §1

[9] = biological target: T3, soluble KDR extracellular domain (ECD) …; assay: Limited Antigen ELISA, KDR coat 50 ng/mL, supernatant 1:25
Experimental: as §1

[10] = biological target: KDR endogenously expressed on human umbilical vein endothelial cells (HUVEC) (human, UniProt P35968 20-1356); assay: cell-based or functional assay
KDR endogenously expressed on human umbilical vein endothelial cells (HUVEC), sequence (P35968 20-1356): as the sequence (P35968 20-1356) above

[11] = biological target: T3, soluble KDR extracellular domain (ECD) …; assay: High Antigen ELISA, KDR coat 500 ng/mL, supernatant 1:75
[12] = biological target: T3, soluble KDR extracellular domain (ECD) …; assay: High Antigen ELISA, KDR coat 500 ng/mL, supernatant 1:25
[13] = biological target: T3, soluble KDR extracellular domain (ECD) …; assay: Limited Antigen ELISA, KDR coat 12.5 ng/mL, supernatant 1:25
Experimental: as §1

[14] = biological target: T3, soluble KDR extracellular domain (ECD) …; assay: High Antigen ELISA, KDR coat 500 ng/mL, supernatant 1:18,225
[15] = biological target: T3, soluble KDR extracellular domain (ECD) …; assay: High Antigen ELISA, KDR coat 500 ng/mL, supernatant 1:6075
[16] = biological target: T3, soluble KDR extracellular domain (ECD) …; assay: High Antigen ELISA, KDR coat 500 ng/mL, supernatant 1:675
[17] = biological target: T3, soluble KDR extracellular domain (ECD) …; assay: High Antigen ELISA, KDR coat 500 ng/mL, supernatant 1:2025
[18] = biological target: T3, soluble KDR extracellular domain (ECD) …; assay: Limited Antigen ELISA, KDR coat 3.125 ng/mL, supernatant 1:25
Experimental: as §1

| Binder | % Inhibition of VEGF-E-mediated pTyr Activity [1] | KDR OD(450 nm) [2] | % Inhibition of VEGF165-mediated pTyr Activity, Average [3] | % Inhibition of VEGF165-mediated pTyr Activity, n = 1 [3] | % Inhibition of VEGF165-mediated pTyr Activity, n = 2 [3] | % Inhibition of VEGF165-mediated pTyr Activity, n = 3 [3] | HUVEC survival (n = 1) 1:10 dilution of supernatant (RLU) [4] | HUVEC survival (n = 2) 1:20 dilution of supernatant (RLU) [4] | FACS Geometric Mean [5] | ELISA reading [6] | ELISA reading [7] | ELISA reading [8] | ELISA reading [9] | VEGF-E-mediated Survival % Inhibition (Average) [10] | VEGF-E-mediated Survival % Inhibition (n = 1) [10] | VEGF-E-mediated Survival % Inhibition (n = 2) [10] | ELISA reading [11] | ELISA reading [12] | ELISA reading [13] | ELISA reading [14] | also measured |
| --- | --- | --- | --- | --- | --- | --- | --- | --- | --- | --- | --- | --- | --- | --- | --- | --- | --- | --- | --- | --- | --- |
| B1 | 22% | 0.814 OD450 | 77% | 92% | 66% | 72% | 36400 RLU | 2450 RLU | 30 |  |  |  |  |  |  |  |  |  |  |  |  |
| B2 |  |  |  |  |  |  |  |  |  | 0.39 | 4.61 | 1.24 | 2.37 | 55% | 56% | 54% | 6 | 4.48 | 0.68 | 0.31 | ELISA reading [15]: 0.62; ELISA reading [16]: 3.6; ELISA reading [17]: 1.81; ELISA reading [18]: 0.2 |
| B3 |  |  |  |  |  |  |  |  |  | 0.37 | 4.31 | 1.32 | 3 | 74% | 78% | 69% | 4.96 | 4.96 | 0.72 | 0.18 | ELISA reading [15]: 0.31; ELISA reading [16]: 2.55; ELISA reading [17]: 0.84; ELISA reading [18]: 0.2 |
| B4 | 24% | 3.45 OD450 | 76% | 99% | 71% | 59% | 28300 RLU | 2520 RLU | 31 |  |  |  |  |  |  |  |  |  |  |  |  |
| B5 |  |  |  |  |  |  |  |  |  | 0.13 | 2.42 | 0.31 | 0.52 | 37% | 31% | 43% | 3.12 | 3.04 | 0.25 | 0.09 | ELISA reading [15]: 0.16; ELISA reading [16]: 0.93; ELISA reading [17]: 0.35; ELISA reading [18]: 0.1 |
| B6 | 30% | 3.59 OD450 | 77% | 95% | 72% | 63% | 43400 RLU | 706 RLU | 24 |  |  |  |  |  |  |  |  |  |  |  |  |
| B7 |  |  |  |  |  |  |  |  |  | 0.11 | 4.07 | 0.36 | 0.85 | 60% | 66% | 54% | 4.24 | 4.06 | 0.15 | 0.49 | ELISA reading [15]: 0.98; ELISA reading [16]: 3.51; ELISA reading [17]: 2.09; ELISA reading [18]: 0.07 |
| B8 | 15% | 1.11 OD450 | 77% | 91% | 75% | 66% | 19300 RLU | 400 RLU | 26 |  |  |  |  |  |  |  |  |  |  |  |  |
